Results taken from patent US20260201064A1 (ISU ABXIS, published 2026).
Substitutions are numbered along the chain they refer to.

B1: #9104a-A1 (antibody, human IgG4 S228P, lambda, V domains shown)
VH: EVQLLESGGGLVQPGGSLRLSCAASGFTFSNYYMSWVRQAPGKGLEWVSGIYYGNGIPYYADSVKDRFTISRDNSKNTLYLQMNSLRAEDTAVYYCARDTPGFDYWGQGTLVTVSS
VL: QSVLTQPPSASGTPGQRVTISCTGSSSNIGNNAVNWYQQLPGTAPKLLIYYDMFRPGGVPDRFSGSKSGTSASLAISGLRSEDEADYYCGAWDYSLSAYVFGGGTKLTVLG
notes: VH of #9104v-H10 with VL of #9104v-L20; full-length IgG, lambda
B2: #9104a-B7 (antibody, human IgG4 S228P, lambda, V domains shown)
VH: B1 VH with I51V, N55S, I57T, D66G
VL: B1 VL with G57N
notes: VH of #9104v-H31 with VL of #9104v-L21; full-length IgG, lambda
B3: #9104a-B8 (antibody, human IgG4 S228P, lambda, V domains shown)
VH: B1 VH with I51V, G54P, N55S, I57N, D66G
VL: B1 VL with G57N
notes: VH of #9104v-H33 with VL of #9104v-L21; full-length IgG, lambda
B4: #9104a-A3 (antibody, human IgG4 S228P, lambda, V domains shown)
VH: B1 VH with N55S, D62N, D66G
VL: B1 VL
notes: VH of #9104v-H13 with VL of #9104v-L20; full-length IgG, lambda
B5: #9104a-C3 (antibody, human IgG4 S228P, lambda, V domains shown)
VH: B1 VH with N55S, D62N, D66G
VL: B1 VL with M53Q, G57S
notes: VH of #9104v-H13 with VL of #9104v-L23; full-length IgG, lambda
B6: #9104a-A2 (antibody, human IgG4 S228P, lambda, V domains shown)
VH: B1 VH with N55S, D66E
VL: B1 VL
notes: VH of #9104v-H11 with VL of #9104v-L20; full-length IgG, lambda
B7: #9104a-B1 (antibody, human IgG4 S228P, lambda, V domains shown)
VH: B1 VH
VL: B1 VL with G57N
notes: VH of #9104v-H10 with VL of #9104v-L21; full-length IgG, lambda
B8: #9104a-A5 (antibody, human IgG4 S228P, lambda, V domains shown)
VH: B1 VH with N55S, I57V, D66G
VL: B1 VL
notes: VH of #9104v-H19 with VL of #9104v-L20; full-length IgG, lambda
B9: #9104a-D2 (antibody, human IgG4 S228P, lambda, V domains shown)
VH: B1 VH with N55S, D66E
VL: B1 VL with M53Y, R55S, P56H, G57S
notes: VH of #9104v-H11 with VL of #9104v-L64; full-length IgG, lambda
B10: #9104a-B2 (antibody, human IgG4 S228P, lambda, V domains shown)
VH: B1 VH with N55S, D66E
VL: B1 VL with G57N
notes: VH of #9104v-H11 with VL of #9104v-L21; full-length IgG, lambda
B11: #9104a-A4 (antibody, human IgG4 S228P, lambda, V domains shown)
VH: B1 VH with Q39R, N55S, I57T, D62A, D66G
VL: B1 VL
notes: VH of #9104v-H17 with VL of #9104v-L20; full-length IgG, lambda
B12: #9104a-C6 (antibody, human IgG4 S228P, lambda, V domains shown)
VH: B1 VH with I51T, G54D, N55S, I57Y, P58V, D66G
VL: B1 VL with M53Q, G57S
notes: VH of #9104v-H27 with VL of #9104v-L23; full-length IgG, lambda
B13: #9104a-D4 (antibody, human IgG4 S228P, lambda, V domains shown)
VH: B1 VH with Q39R, N55S, I57T, D62A, D66G
VL: B1 VL with M53Y, R55S, P56H, G57S
notes: VH of #9104v-H17 with VL of #9104v-L64; full-length IgG, lambda
B14: #9104a-B6 (antibody, human IgG4 S228P, lambda, V domains shown)
VH: B1 VH with I51T, G54D, N55S, I57Y, P58V, D66G
VL: B1 VL with G57N
notes: VH of #9104v-H27 with VL of #9104v-L21; full-length IgG, lambda
B15: #9104a-D3 (antibody, human IgG4 S228P, lambda, V domains shown)
VH: B1 VH with N55S, D62N, D66G
VL: B1 VL with M53Y, R55S, P56H, G57S
notes: VH of #9104v-H13 with VL of #9104v-L64; full-length IgG, lambda
B16: #9104a-C5 (antibody, human IgG4 S228P, lambda, V domains shown)
VH: B1 VH with N55S, I57V, D66G
VL: B1 VL with M53Q, G57S
notes: VH of #9104v-H19 with VL of #9104v-L23; full-length IgG, lambda
B17: #9104a-A8 (antibody, human IgG4 S228P, lambda, V domains shown)
VH: B1 VH with I51V, G54P, N55S, I57N, D66G
VL: B1 VL
notes: VH of #9104v-H33 with VL of #9104v-L20; full-length IgG, lambda
B18: #9104a-B5 (antibody, human IgG4 S228P, lambda, V domains shown)
VH: B1 VH with N55S, I57V, D66G
VL: B1 VL with G57N
notes: VH of #9104v-H19 with VL of #9104v-L21; full-length IgG, lambda
B19: #9104a-C7 (antibody, human IgG4 S228P, lambda, V domains shown)
VH: B1 VH with I51V, N55S, I57T, D66G
VL: B1 VL with M53Q, G57S
notes: VH of #9104v-H31 with VL of #9104v-L23; full-length IgG, lambda
B20: #9104a-B3 (antibody, human IgG4 S228P, lambda, V domains shown)
VH: B1 VH with N55S, D62N, D66G
VL: B1 VL with G57N
notes: VH of #9104v-H13 with VL of #9104v-L21; full-length IgG, lambda
B21: #9104a-C2 (antibody, human IgG4 S228P, lambda, V domains shown)
VH: B1 VH with N55S, D66E
VL: B1 VL with M53Q, G57S
notes: VH of #9104v-H11 with VL of #9104v-L23; full-length IgG, lambda
B22: #9104a-C1 (antibody, human IgG4 S228P, lambda, V domains shown)
VH: B1 VH
VL: B1 VL with M53Q, G57S
notes: VH of #9104v-H10 with VL of #9104v-L23; full-length IgG, lambda
B23: #9104a-A7 (antibody, human IgG4 S228P, lambda, V domains shown)
VH: B1 VH with I51V, N55S, I57T, D66G
VL: B1 VL
notes: VH of #9104v-H31 with VL of #9104v-L20; full-length IgG, lambda
B24: #9104a-D1 (antibody, human IgG4 S228P, lambda, V domains shown)
VH: B1 VH
VL: B1 VL with M53Y, R55S, P56H, G57S
notes: VH of #9104v-H10 with VL of #9104v-L64; full-length IgG, lambda
B25: #9104a-C4 (antibody, human IgG4 S228P, lambda, V domains shown)
VH: B1 VH with Q39R, N55S, I57T, D62A, D66G
VL: B1 VL with M53Q, G57S
notes: VH of #9104v-H17 with VL of #9104v-L23; full-length IgG, lambda
B26: #9104a-A6 (antibody, human IgG4 S228P, lambda, V domains shown)
VH: B1 VH with I51T, G54D, N55S, I57Y, P58V, D66G
VL: B1 VL
notes: VH of #9104v-H27 with VL of #9104v-L20; full-length IgG, lambda
B27: #9104a-D5 (antibody, human IgG4 S228P, lambda, V domains shown)
VH: B1 VH with N55S, I57V, D66G
VL: B1 VL with M53Y, R55S, P56H, G57S
notes: VH of #9104v-H19 with VL of #9104v-L64; full-length IgG, lambda
B28: #9104a-B4 (antibody, human IgG4 S228P, lambda, V domains shown)
VH: B1 VH with Q39R, N55S, I57T, D62A, D66G
VL: B1 VL with G57N
notes: VH of #9104v-H17 with VL of #9104v-L21; full-length IgG, lambda

Molecular target: T1, recombinant human ASM protein (human, UniProt P17405 47-630)
T1 construct: Recombinant human ASM in solution; also called acid sphingomyelinase (ASM) protein
T1 sequence: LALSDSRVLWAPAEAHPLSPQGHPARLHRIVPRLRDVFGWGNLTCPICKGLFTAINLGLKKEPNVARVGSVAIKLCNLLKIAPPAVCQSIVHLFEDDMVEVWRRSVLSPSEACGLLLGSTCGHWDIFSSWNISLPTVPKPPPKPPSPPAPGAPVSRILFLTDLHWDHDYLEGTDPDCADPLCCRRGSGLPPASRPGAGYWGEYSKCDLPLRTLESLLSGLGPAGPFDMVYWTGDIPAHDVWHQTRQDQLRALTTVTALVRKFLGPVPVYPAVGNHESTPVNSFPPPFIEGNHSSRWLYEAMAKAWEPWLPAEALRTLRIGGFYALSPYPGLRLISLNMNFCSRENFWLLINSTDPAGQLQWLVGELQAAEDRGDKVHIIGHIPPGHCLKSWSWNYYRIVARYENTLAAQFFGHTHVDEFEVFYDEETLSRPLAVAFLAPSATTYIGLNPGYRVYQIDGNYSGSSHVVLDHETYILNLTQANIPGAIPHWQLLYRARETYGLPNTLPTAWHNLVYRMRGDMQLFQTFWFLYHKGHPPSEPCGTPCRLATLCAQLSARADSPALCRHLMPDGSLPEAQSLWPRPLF
Test: BLI (Octet), antibody on AHC sensor
Method: The binding affinity, to the ASM protein, of the produced antibodies specifically binding to the ASM protein and the interactive dynamics therebetween were measured using an Octet® QK384 system (Pall Life Sciences).
First, an antibody specifically binding to the ASM protein produced in Example 1 was captured using an anti-human IgG Fc capture (AHC) biosensor, and 1.25, 2.5, 5, 10, or 20 nM recombinant human ASM protein solution was added thereto. […] The association constant (Kₐ), dissociation constant (Kd), and equilibrium dissociation constant (KD) for each antibody were determined using Octet® analysis software (Pall Life® Sciences). As a result, the binding affinities, to the human ASM protein, of the antibodies with mutations in the heavy chain CDR regions of the antibody #9104 as depicted in Table 1 are shown in Table 5, and the binding affinities, to the human ASM protein, of the antibodies with mutations of the light chain CDR regions in the antibody #9104 as depicted in Table 2 are shown in Table 6.
After the small-scale expression in the ExpiCHO cell line as described above, the binding affinity to the human ASM protein was investigated as described in Experimental Example 1. Specifically, the antibody produced by a combination of #9104v-H33 heavy chain variable region and #9104v-L23 light chain variable region was not expressed and thus excluded in the analysis of binding affinity to ASM protein.

Binder | Kd [pM] | koff [s⁻¹] | kon [M⁻¹ s⁻¹]
B1 | 51.8 | 1.14e-05 | 220000
B2 | 163 | 4.07e-05 | 250000
B3 | 280 | 6.44e-05 | 230000
B4 | 27.7 | 5.48e-06 | 198000
B5 | 176 | 4.55e-05 | 259000
B6 | 96.1 | 1.98e-05 | 206000
B7 | 137 | 3.45e-05 | 253000
B8 | 160 | 3.93e-05 | 246000
B9 | 149 | 5.22e-05 | 351000
B10 | 114 | 3.03e-05 | 266000
B11 | 162 | 3.54e-05 | 219000
B12 | 928 | 0.000109 | 117000
B13 | 206 | 5.09e-05 | 248000
B14 | 1140 | 9.41e-05 | 82900
B15 | 229 | 6.73e-05 | 294000
B16 | 192 | 6.46e-05 | 337000
B17 | 237 | 4.51e-05 | 191000
B18 | < 1 | < 1e-07 | 243000
B19 | 152 | 4.56e-05 | 300000
B20 | 35.1 | 8.23e-06 | 234000
B21 | 172 | 5.28e-05 | 306000
B22 | 139 | 3.76e-05 | 271000
B23 | 35.4 | 8.13e-06 | 230000
B24 | 94.8 | 2.79e-05 | 294000
B25 | 203 | 6.42e-05 | 317000
B26 | 768 | 6.96e-05 | 90600
B27 | 130 | 3.39e-05 | 261000
B28 | 153 | 3.74e-05 | 245000
